This note sets out measurements from patent publication US20030180744, “High affinity oligonucleotide ligands to growth factors” (GILEAD SCIENCES, INC., published 2003).

For data set [1], the target named is T1, PDGF-AB (Homo sapiens, UniProt P04085;P01127 P04085:87-211,P01127:82-190). Briefly: efficient photo-crosslinking at 308 nm, to Phe84 of B chain. As to conditions: tags: R&D Systems, E. coli; chain copies: A/B chain dimer.
Data set [2] deals with T2, KGF (hKGF) (Homo sapiens, UniProt P21781 P21781:32-194).
T2 sequence: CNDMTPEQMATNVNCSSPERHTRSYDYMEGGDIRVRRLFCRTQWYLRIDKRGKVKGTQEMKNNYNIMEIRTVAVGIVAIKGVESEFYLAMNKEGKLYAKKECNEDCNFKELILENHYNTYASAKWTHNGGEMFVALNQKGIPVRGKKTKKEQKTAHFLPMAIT
Briefly: filter; biphasic, high affinity 43%; Kd2 2.55 nM. As to conditions: tags: Upstate Biotechnology; label: 32P.

In data set [3] the target is T3, bFGF (Example 20) (UniProt P09038 P09038:143-288). Briefly: parent SELEX ligand.
Data set [4] addresses T1, PDGF-AB. Briefly: filter; substitution pattern compatible with high affinity. As to conditions: tags: R&D Systems, E. coli; chain copies: A/B chain dimer; three-way helix junction.
The target of data set [5] is T1, PDGF-AB. In words: filter; +/-38; high affinity component of biphasic binding. To be noted: tags: R&D Systems, E. coli. On the procedure: (§1) Briefly, the 2′-fluoro-2′-deoxypyrimidine RNA for affinity selections was prepared by in vitro transcription from synthetic DNA templates using T7 RNA polymerase (Milligan et al., Nucl. Acids Res. 15:8783 (1987)). The conditions for in vitro transcription described in detail previously (Jellinek et al., (1994) supra) were used, except that higher concentration (3 mM) of the 2′-fluoro-2′-deoxypyrimidine nucleoside triphosphates (2′-F-UTP and 2′-F-CTP) was used compared to ATP and GTP (1 mM). Affinity selections were done by incubating PDGF AB with 2′-fluoro-2′-deoxypyrimidine RNA for at least 15 min at 37° C. in PBS containing 0.01% human serum albumin. Partitioning of free RNA from protein-bound RNA was done by nitrocellulose filtration as described (Jellinek et al., (1993, 1994) supra). Reverse transcription of the affinity-selected RNA and amplification by PCR were done as described previously (Jellinek et al., (1994) supra). […] The affinity-enriched pool (round 19) was cloned and sequenced as described (Schneider et al., (1992) supra). The unique-sequence ligands were screened for their ability to bind PDGF AB with high affinity.

The target in data set [6] is T2, KGF (hKGF). Briefly: competition; PC-3 cells. As to conditions: tags: Upstate Biotechnology. Here is the method:
PC-3 cells were plated in 24-well plates at about 10⁵ cells per well. Following growth for […], the cells were serum starved for 24 hours, washed two times with 500 μl of cold DPBS, and then incubated with 500 μl binding buffer (BB1; DPBS, 0.5 mM MgCl₂, 0.2% BSA. 0.02% sodium azide) containing various concentrations of ¹²⁵I-labeled KGF ranging from 0 to 0.8 nM. Following 3-3.5 hour incubation at 4° C., the binding mixes were aspirated and the well-adhered cells were washed two times with 1 ml BB1 and once with 1 ml BB1 supplemented with 0.5M NaCl. The remaining bound labeled hKGF was solubilized in 600 μl 0.5% SDS/0.1M NaOH and counted in a gamma counter (Beckmann). Nonspecific binding was determined in the presence of 100 fold molar excess of unlabeled hKGF. For competition assays, the labeled hKGF was kept constant at […], and varying concentrations of competitor molecules were included in the binding reactions ranging from 0-1,000 nM. Binding curves were fitted to the equation: […]
A subset of these ligands was tested on the NIH3T3/FGFR-2. In determining the Ki values, it was assumed that 3T3 cells have 500,000 binding sites per cell and PC-3 cells have 5,000 binding sites per cell.

In data set [7] the target is T2, KGF (hKGF). In words: filter; biphasic, high affinity 33%. To be noted: tags: Upstate Biotechnology; label: 32P.
For data set [8], the target named is T2, KGF (hKGF). In words: filter; second value 8.70 nM. As to conditions: tags: Upstate Biotechnology; label: 32P.
In data set [9] the target is T4, TGFβ1 (Homo sapiens, UniProt P01137 P01137:279-390). Briefly: filter; 37 C; cell IC50 17 nM. As to conditions: tags: Genentech; biotinylated version used in bead assay; chain copies: 2.
The target of data set [10] is T4, TGFβ1. Briefly: cell_activity. To be noted: tags: Genentech or R&D Systems; chain copies: 2. Here is the method:
MLEC-Pail/luc cells were plated at 3.2×10⁴ cells per well in a 96 well Falcon plate, in 100 μl of DME+10% fetal bovine serum overnight. Media was made from autoclaved water. The cells were washed three times ([…]) in serum free DME plus Solution A (1:1). Solution A is 30 mM Hepes pH 7.6, 10 mM glucose, 3.0 mM KCl, 131 mM NaCl, 1.0 mM disodium phosphate. Samples (100 μl) were added in DME containing 20 mM Hepes pH 7.5, and 0.1% BSA (Fluka, radioimmunoassay grade). All samples were in triplicate. After six hours at 37° C. in a 5% CO₂ incubator the media was removed and cells were washed three times (100 μl each) in cold PBS. Lysis buffer (75 μl) (Analytical Luminescence Laboratory) was added and the plates incubated on ice for 20 min. The plates were sealed and frozen at −80° C. until assayed. Samples (25 μl) were assayed for luciferase activity with the Enhanced Luciferase Assay Kit from Analytical Luminescence Laboratory (San Diego, Calif., USA) according to the manufacturer's instructions using the Berthold Microlumat LB96P luminometer.
Ligands tested for inhibition of TGFβ1 activity were tested at a minimum of five concentrations. The ligands were serially diluted in DME, 20 mM Hepes pH 7.5, 0.1% Fluka BSA in polypropylene tubes and an equal volume of media containing 12 pM TGFβ1 was added to each tube, vortexed and transferred to the cells without further incubation.

In data set [11] the target is T1, PDGF-AB. Briefly: filter; +/-34; high affinity component of biphasic binding. As to conditions: tags: R&D Systems, E. coli. On the procedure:
as §1

For data set [12], the target named is T2, KGF (hKGF). In words: filter; biphasic, high affinity 28%. As to conditions: tags: Upstate Biotechnology; label: 32P.
The target of data set [13] is T4, TGFβ1. Briefly: filter; 37 C; cell IC50 210 nM. To be noted: tags: Genentech; biotinylated version used in bead assay; chain copies: 2.
Data set [14] addresses T4, TGFβ1. Briefly: filter; 37 C; cell IC50 124 nM. As to conditions: tags: Genentech; biotinylated version used in bead assay; chain copies: 2.
The target of data set [15] is T1, PDGF-AB. In words: filter; thrombin aptamer control. As to conditions: tags: R&D Systems, E. coli; stem-loop. On the procedure: The binding of ssDNA ligands at low concentrations to varying concentrations of PDGF was determined by the nitrocellulose filter binding method as described (Green et al., (1995) Chemistry and Biology 2:683-695). The concentrations of PDGF stock solutions (in PBS) were determined from the absorbance readings at 280 nm using the following e₂₈₀ values calculated from the amino acid sequences (Gill, S.C. and von Hippel, P. H. (1989) Anal. Biochem. 182:319-326): 19,500 M⁻¹cm⁻¹ for PDGF-AA, 15,700 M⁻¹cm⁻¹ for PDGF-AB and 11,800 M⁻¹cm⁻¹ for PDGF-BB. ssDNA for all binding experiments were purified by electrophoresis on 8% (>80 nucleotides) or 12% (<40 nucleotides) polyacrylamide/7 M urea gels. All ssDNA ligands were heated at 90° C. in binding buffer at high dilution (1 μM) for 2 min and cooled on ice prior to further dilution into the protein solution. The binding mixtures were typically incubated for 15 min at 37° C. before partitioning on nitrocellulose filters.

Data set [16] addresses T3, bFGF (Example 20). In words: truncated ligand from deletion analysis.
Data set [17] addresses T4, TGFβ1. In words: filter; 3' boundary experiment. To be noted: tags: Genentech or R&D Systems; chain copies: 2.

T4 sequence (P01137 279-390, one chain of several): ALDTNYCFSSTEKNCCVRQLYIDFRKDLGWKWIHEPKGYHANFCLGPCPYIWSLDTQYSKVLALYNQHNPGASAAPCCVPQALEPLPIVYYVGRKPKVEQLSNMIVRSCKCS
T1 sequence (P01127 82-190, chain 2 of 2, other chains not shown): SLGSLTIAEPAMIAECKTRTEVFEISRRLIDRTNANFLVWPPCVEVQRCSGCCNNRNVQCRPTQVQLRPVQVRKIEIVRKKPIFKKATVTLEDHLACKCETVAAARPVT
T3 sequence (P09038 143-288, one chain of several): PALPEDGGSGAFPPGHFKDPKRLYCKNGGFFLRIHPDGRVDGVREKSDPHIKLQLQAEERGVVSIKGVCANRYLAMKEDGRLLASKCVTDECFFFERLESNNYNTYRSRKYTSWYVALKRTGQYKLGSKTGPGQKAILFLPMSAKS

B1: 20t-I4 (ssDNA)
DNA: TGGGAGGGCGCGTTCTTCGTGGTTACTTTTAGTCCCG
modifications: 5-iodo-dU at 24
In the case of B1, the binding result in the data set with PDGF-AB [1] is given as “binds”.

B2: 26F (ssRNA)
RNA: GGGAGGACGAUGCGGUCAAGCUUAACAGUCUGGCAAUGGCCAUUAUGGCGCCCCAGACGACUCGCCCGA
modifications: 2'-F pyrimidines
Regarding B2, binding with KGF (hKGF) [2] was put at a Kd of 0.23 nM.

B3: 21A (ssRNA)
RNA: GGGAGACAAGAAUAACGCUCAAGUAGACUAAUGUGUGGAAGACAGCGGGUGGUUCGACAGGAGGCUCACAACAGGC
modifications: 2'-NH2 pyrimidines
For B3, the binding result with bFGF (Example 20) [3] is “binds”.

B4: 36t 2'-OMe/2'-F (mixed)
mixed: CAGGCUACGGCACGTAGAGCAUCACCATGATCCUG
modifications: 2'-OMe C8,C11,C25,C26,G9,G10,G17,G19,G35,A12,A24,A27,U34; 2'-F U6,U22,C23,C32,C33; 3'-3' idT
Turning to B4, the binding result with PDGF-AB [4] is given as “binds”.

B5: PDGF 2'-F clone 23 (ssRNA)
RNA: GGGAGACAAGAAUAACGCUCAAUCGAUCGGUUGUGUGCCGGACAGCUUUGACCAUGAGCUGGGACCGAGGCCUUCGACAGGAGGCUCACAACAGGC
modifications: 2'-F pyrimidines
For the molecule B5, the Kd (in general, the equilibrium constant for the complex coming apart) with PDGF-AB [5] came to 0.173 nM. In other words, the sub-nanomolar range.

B6: 15F (ssRNA)
RNA: GGGAGGACGAUGCGGUCAUGGUGUCUUUCCACAGCUCUUCCCAUGAUCGCCCGGCCAGACGACUCGCCCGA
modifications: 2'-F pyrimidines
Consider B6, for which the half-maximal inhibitory concentration (IC50) (as a rule, the concentration needed to halve the response being measured) with KGF (hKGF) [6] was 20 nM. In the data set with KGF (hKGF) [7], this molecule yielded an equilibrium dissociation constant (Kd) of 0.07 nM.

B7: 20F (ssRNA)
RNA: GGGAGGACGAUGCGGAGUAUUCCAGCCUGGAUUCAUAGUCAGUGCUCUCCGUGCCCAGACGACUCGCCCGA
modifications: 2'-F pyrimidines
For B7, binding with KGF (hKGF) [8] was put at a Kd of 2.05 nM. That is a single-digit nanomolar value.

B8: lib5-7 (ssRNA)
RNA: GGGGGAGAACGCGGAUCCGAGCAAGCCCUGGCAUAGCUUCCGAGUAGACAGGAGGGAGGGGUGGAUGUGGCGUCUACUCGGUGUCGUGAAGCUUCGCUCUAGAUCUCCCUUUAGUGAGGGUUA
modifications: 2'-NH2 pyrimidines
Molecule B8 gave a Kd with TGFβ1 [9] of 3.4 nM. The molecule also had an IC50 in the data set with TGFβ1 [10] of 17 nM.

B9: PDGF 2'-F clone 16 (ssRNA)
RNA: GGGAGACAAGAAUAACGCUCAACGAACGAGGAGGGAGUGGCAAGGGAUGGUUGGAUAGGCUCUACGCUCAUUCGACAGGAGGCUCACAACAGGC
modifications: 2'-F pyrimidines
Consider B9, for which binding in the data set with PDGF-AB [11] was put at a Kd of 0.116 nM. In other words, the sub-nanomolar range.

B10: 13F (ssRNA)
RNA: GGGAGGACGAUGCGGCACCUUAGACCUGUCCUCCAAGCGUGAGUUGCUGUGGCCCAGACGACUCGCCCGA
modifications: 2'-F pyrimidines
B10 had a Kd with KGF (hKGF) [12] of 0.03 nM. In the data set with KGF (hKGF) [6], this molecule displayed an IC50 of 30 nM.

B11: lib8-9 (ssRNA)
RNA: GGGGGAGAACGCGGAUCCGCAAUCCCAGGCGCAUAGCUUCCGAGUAGACAGGAGGGAGGGGUGGAUGUGGCGUCUACUCGGCGUCGUGAAGCUUCGCUCUAGAUCUCCCUUUAGUGAGGGUUA
modifications: 2'-NH2 pyrimidines
Molecule B11 displayed a dissociation constant (Kd) with TGFβ1 [13] of 1.7 nM. In the data set with TGFβ1 [10], this molecule returned an IC50 of 210 nM.

B12: lib8-9* (ssRNA)
RNA: GGGGGAGAACGCGGAUCCGCAAUCCCAGGCGCAUAGCUUCCGAGUAGACAGGAGGGAGGGGUGGAUGUGGCGUCUACUCGGCGUCGUGAAGCUUCGCUCUAGAUCUCCCUUUAGUGAGGGUUA
modifications: 2'-NH2 U, 2'-F C
As for B12, the Kd with TGFβ1 [14] was 2.8 nM.

B13: T39 (ssDNA)
DNA: CAGTCCGTGGTAGGGCAGGTTGGGGTGACTTCGTGGAAT
modifications: 3'-3' linked T at 3' end
In the data set with PDGF-AB [15], B13 came in with a dissociation constant (Kd) of 230 nM.

B14: 21A-t (ssRNA)
RNA: GGUGUGUGGAAGACAGCGGGUGGUUC
modifications: 2'-NH2 pyrimidines
As for B14, the binding result with bFGF (Example 20) [16] is on record as “binds”.

B15: lib4-32 boundary (ssRNA)
RNA: GGGGGAGAACGCGGAUCCGGCAACCCCAGGCGCAUAGCUUCCGAGUAGACAGGCGGGAGGGGUGGAUGUGGCGUCACG
modifications: modified pyrimidines
As for B15, in the data set with TGFβ1 [17], the binding result is recorded as “binds”.
